B1: Ltp2 (17-hydroxy-3-oxo-4-pregnene-20-carboxyl-CoA retro-aldolase; chain gamma of the ChsH1-ChsH2-Ltp2 complex) (enzyme)
chain: MLSGQAAIVGIGATDFSKNSGRSELRLAAEAVLDALADAGLSPTDVDGLTTFTMDTNTEIAVARAAGIGELTFFSKIHYGGGAACATVQHAAMAVATGVADVVVAYRAFNERSGMRFGQVQTRLTENADSTGVDNSFSYPHGLSTPAAQVAMIARRYMHLSGATSRDFGAVSVADRKHAANNPKAYFYGKPITIEDHQNSRWIAEPLRLLDCCQETDGAVAIVVTSAARARDLKQRPVVIEAAAQGCSPDQYTMVSYYRPELDGLPEMGLVGRQLWAQSGLTPADVQTAVLYDHFTPFTLIQLEELGFCGKGEAKDFIADGAIEVGGRLPINTHGGQLGEAYIHGMNGIAEGVRQLRGTSVNPVAGVEHVLVTAGTGVPTSGLILG

How the values were obtained:
negative-stain EM = molecular target: the molecule itself; assay: negative-stain EM
[1] = molecular target: B1; assay: SAXS

Row | Binder | binding result (negative-stain EM) | binding result [1]
1 | B1 | binds | 
2 | ChsH2 (chain beta of the ChsH1-ChsH2-Ltp2 complex) (enzyme) MTGVSDIQEAVAQIKAAGPSKPRLARDPVNQPMINNWVEAIGDRNPIYVDDAAARAAGHPGIVAPPAMIQVWTMMGLGGVRPKDDPLGPIIKLFDDAGYIGVVATNCEQTYHRYLLPGEQVSISAELGDVVGPKQTALGEGWFINQHIVWQVGDEDVAEMNWRILKFKPAGSPSSVPDDLDPDAMMRPSSSRDTAFFWDGVKAHELRIQRLADGSLRHPPVPAVWQDKSVPINYVVSSGRGTVFSFVVHHAPKVPGRTVPFVIALVELEEGVRMLGELRGADPARVAIGMPVRATYIDFPDWSLYAWEPDE |  | binds

Source: article PMC6946549 (Biochemistry, 2019)
